Results: the DeepSol protein solubility set

experiment: soluble on expression in E. coli; label from the status in PepcDB or PDB records

Row | Sequence | soluble on expression in E. coli
1 | MGSDKIHHHHHHMGHSLLFAVDVRPPHDVGVDGPRTASMCQNEVVADLKQRRPSVEQIIRIGIDTSKHVFQLHGVNAAEEPVLRKKLRRKEVVALFEKLSPTVVAIEACGGSHHWARLLQSFGHEVKLIPPQYVKPYVKRGKNDTADAEALCEAMSRPTMRFVPVKTAKQQAALMLVGLRDRLIRNRTQLANAIRGYAAEYGLIAARGMCKIEPLLERIAADKMLPDLARELFALHAKEYAQLQTQLKDVDAKLMAWHRAEACSQRLAQIPGVGPIGASLLVMKTPAPETFRSARHFAAWLGLTPKDHSTAGRVRLGVITRAGDEALRSVLVAGATAVIRHVRRGRGAVSPWLVDLLKRKPPKLAAVALANKIARIAWKLMVSGEIYGAKPMPPASARAA | not soluble
2 | MSEIKTDDPKRGIKLRGADKTARIPIKVVPLQEKLKKPEWIRAKLPSRKFFEIKDILREQKMHTVCEEASCPNIGECFSKGTATFMIMGDICTRRCPFCDVGHGRPNMLDPDEPRNLAESVKAMNLRYVVITSVDRDDLRDGGAQHFADCIKAIRETSPNTKIEILVPDFRGRLDIALKILAETPPDVMNHNLETHPSLYRKARPGANYQHSLDLLKRYKEMMPHIPTKSGIMVGLGETDEDVREIMRDMRAHNIEMITIGQYLQPSDGHLPVLRYVTPEQFKIFEKEAYELGFSNAAIGAMVRSSYHADEQAAEALRESHGGCGHH | not soluble
3 | MHTDTPSLESLLEAARQRYDVVFEPLTVDETPLDVLQIRNMRQHIDALVANRSVRDPLHDLPLWAKIWPASFVLGRFLRKASPEGRTLLEVGAGCGVTGLIASRYGFAHVTVSDINEDALLFARANVLKNGLEDRVSVRRVDVASTRLDEKFDVIAASEVLYLEELHRPLIKFLLRHLARREDAVAMLCTDTRRKMGRFFKQAERDFRIEEQLVGIRTTGDDGEEERRVFTIHRLHHKHPLEHHHHHH | not soluble
4 | MGHHHHHHSHMVAWKRQLILFGGFHESTRDYIYYNDVYAFNLDTFTWSKLSPSGTGPTPRSGCQMSVTPQGGIVVYGGYSKQRVKKDVDKGTRHSDMFLLKPEDGREDKWVWTRMNPSGVKPTPRSGFSVAMAPNHQTLFFGGVCDEEEEESLSGEFFNDLYFYDATRNRWFEGQLKKLRSGWRRRTRKRTVRRLRAPRVGSTTKTAERRAVRRTESPCQGRLASAVPTSAQDPAVLSEALGASVRPDAQERAEGGWPRPGCELSPMV | not soluble
5 | MGGSHHHHHHGMASSSNVPADMINLRLILVSGKTKEFLFSPNDSASDIAKHVYDNWPMDWEEEQVSSPNILRLIYQGRFLHGNVTLGALKLPFGKTTVMHLVARETLPEPNSQGQRNREKTGESNCCVIL | not soluble
6 | MAKITVGTENQAPIEIYYEDHGTGKPVVLIHGWPLSGRSWEYQVPALVEAGYRVITYDRRGFGKSSQPWEGYEYDTFTSDLHQLLEQLELQNVTLVGFSMGGGEVARYISTYGTDRIEKVVFAGAVPPYLYKSEDHPEGALDDATIETFKSGVINDRLAFLDEFTKGFFAAGDRTDLVSESFRLYNWDIAAGASPKGTLDCITAFSKTDFRKDLEKFNIPTLIIHGDSDATVPFEYSGKLTHEAIPNSKVALIKGGPHGLNATHAKEFNEALLLFLKD | not soluble
7 | MLLAYQSVIASITYLNPNIRFQLSRRCPSLKSAEKSAPLFINKLKLCTNSVVVNDISYEVDVYKTSEAVLLTYNTDLDVFGSIDFDLEIEEQNEILLDHRTYMAERMRLEREVLGLMTHSRNPNADLSRLMEINRLNKIRIQAREDRREVPNTPPEPPLVQVIEFAVMETDNYGDCLENEQLTYDRKLHDAVKYIMEKLFCGRKTPVHLSTLSINSFGILRIPLNMRFKIRHLKLVSGHANEIASKIRPIIEDSSFPLKSIIIKDPVEFDDPIYHSTQLLVLRHQLENRSPRFLNVKVLPNQLYVTTKILNWVQQARPVGTCWEFVGIDKNSKRQCVQKLMQIPGAMRALHTKLCWIILPANDDSEIHVTVAQDKINSKQFSIKLTVY | not soluble
8 | MQLDIDGLKVLFPYDYVYPEQVLYMKEVKKALDARGHGLLEMPSGTGKTVSLLSLVLAYMISYPDKLDKLVYCSRTIPEIEKCVEEMKVLYDYWEKETGQPVAKITVAMSARKNLCVNEPVAALRFGNTVDSACQKLTASSARQKRAEDPTLEACDYFENFEAKSVPMQNGVWNLVKICEFWGTDKIEIFREKIQEI | not soluble
9 | MGSDKIHHHHHHMVLRYTALGDSLTTGRGSGLFSPGFVQRFGDMMEADLKTRTAINIFARSGLNTEEILGLLSYPYVQKCIRDADMITITGCGNDLIDSVLAYQTSKDETIFSRVSAHCHENFEKMIAKVAEIKGENPSPYAIRVFNLYNPFPEIDIAGKWITSFNSHLETLASAPHVKIADAYSIFKGKEQEYLSFDGVHPNSKGYQAMAEAVHKLGYKELSVS | not soluble
10 | MRTIEFQAKQLLMEKLDKNLLDHAKSLTDGNGPQIVDVYGLQQLAEVHCYLKTTHQFDPAEVEALLQFADPLEAACHCWEMNTHEYSFPICDLLRETRARELFELAKPEPPAKLSVREQLRAAVKEARQNLAPEERTKGGEAR | not soluble
11 | MDTNFKLSNCIGTVYRDGQVAFSKDGYSVISPIGNKLSIFDLRNNTSKTLDIDCNYNIKRLSISPSGYHLLASDERGVVHFVHLLSEFKIYTFRSNKPIGSLQWSPDATRVAICRENDLQIHEFGKSIENKVYNPFSLSRTYKLSSDSLKTIDWSDDANLLVSGGEDRVVRVVGAKDFKNLFIHPLASHKGYIVNCQFMKNSYDMITVCKRGLANVWTCNLRPGELVEGIWKKDEEGSDDIEMLEDGEQKVEKIFFEKTKKYWLSESSGSGKSVDVTAARFHKETNILATAFNNGVIVLHEIPSFALVHNLRVSEMRIQTVAWNLTGDWLAIGCGKGSTAQLVVWEWQSESYVMKQQAHSLRITTAEYSPDGSLMATGAEDGKVKIWNSRSSFCTVTFDEHTSGVTAVKWTQSGRAILSASLDGTVRAHDLKRYRNFRTLVCPEPTQLATLAVDKAGDLVIAGAKEVFNIYIWSFETGHLLDILSGHESAISSIDIHGNHIVSGSWDRTIKMWTIVDSQAETVEVSHEALDVKFSPAGDEIAVLTSDGVITFFEAKEMINLGSIDTKLDTDPARGSRDTITRQSAAKTKTFTRIRFSPDGNLLLAGGESNNFCLYSVPERMILKKWQITANRSLDGVILDFNRRNFTEFGNMQLVDTSDEEDELEPNNKMSIKLPGTKNFDLGERRARPEVNIYEVTYCPTGRRFAICSTEGVSVYSLDTISMFDPFQLDSQTNAEVIKRAVWNNDYSTAIMASLRLNNAQYITECLESTSISQIPLVASSLPLMYAERLLKWMVEGNVMSSTRHVHFYMIWLRAILQHHGMQLKGRADVATLTGIQQIVAHHQQHITKLANQNKFALNWLVKIRQSKKSVKKEEEEEEDVSDESDDEDIEDESAGSDDEDSDDSVEIIE | not soluble
12 | RRTAEAERDRLNELLQIFTAAVPGVVYAKDLEGRMLVANRGTAELVGKPPEFFIGKTDLEFLDDEQQARVLMETDQRIMQSNVSEQIEEKVNLADGSAAIWLSTKAPLLDRNGDVIGLIGSSIDVT | not soluble
13 | MSNEGSREESREPEAREGKSDEIFEVEKILAHKVTDNLLVLQVRWLGYGADEDTWEPEEDLQECASEVVAEYYKKLKVTDKTELIELLQKQIKKNKSQKSKKRSKTVSDHESNHDSDGSYGTPKTSKKSKKSAKNETPVSSKVPKVPTKAALKSYEATVSGPVAPNNAKKAAMEVRDTRRNWLDEESSDDEAETTAPLSDVEKIASKVKVVKAVEEKAEEPVKRPSTPPKPREVVIKKDPSESPVASASSVIPTSKRKSINAETSNGRQRTLAPPVIVKDETTWTVDGIARHTDVDNTKTKLILMTNSATGERKVVEGREAFELDGWALAKYLLDRCEF | soluble
14 | MGSDKIHHHHHHMSSLEDILALTSALIRYRSTDTRPEERDRCAAHIMRWCDAEDIASSRVDNNGVTSLIIGPASKRAPLLFMAHYDVVEGPDALFQPVLSDSVLKGRGSIDDKYAVALSLVLFRDHLRHLRAQGRSQDDMPLQLLITGDEETGGYDGARHALGHVGAEFCIALDGGSPSTVITKEKGIIDCTLTAHGRAAHGARPWLGTNAVECLMADYMALKRLFPGQDDPTDPIHWHRSLNLGIVRAGSAVNQVPDLATAWLDVRYTEHDDPQALFAAMQESIRGELVATRTEPVFHSGETPWIDRLLACAPGASTGFAHGASDARFLSEHGIPGVVWGAEGETSQHGPDEHLLVDSLDTVHKALAAFVRTAGGTA | not soluble
